In article PMC7316778 (Nature Communications, 2020):

Assays:
FES^WT [1] = molecular target: T1, FES^WT (Homo sapiens, UniProt P07332); test: In vitro TR-FRET kinase assay; type: biochemical; conditions: TR-FRET assay, 5 µM ATP; n = 3
T1 construct: human FES cDNA encoding residues 448–822 or human FER cDNA encoding residues 448–820 was amplified by PCR; made in house; host or cells: E. coli BL21(DE3), co-expressing YopH phosphatase
Procedure: All measurements were performed in triplicate.

FES^S700C = FES^S700C (Homo sapiens, UniProt P07332, S700C); test: In vitro TR-FRET kinase assay; type: biochemical; parameters: human FES cDNA encoding residues 448–822 or human FER cDNA encoding residues 448–820 was amplified by PCR; made in house; host or cells: E. coli BL21(DE3), co-expressing YopH phosphatase
LYN = LYN (Homo sapiens, UniProt P07948); test: PamChip microarray peptide phosphorylation; conditions: peptide substrate phosphorylated by LYN
CSK = CSK (Homo sapiens, UniProt P41240); test: PamChip microarray peptide phosphorylation; conditions: peptide substrate phosphorylated by CSK
FGR = FGR (Homo sapiens, UniProt P09769); test: PamChip microarray peptide phosphorylation; conditions: peptide substrate phosphorylated by FGR
ABL1 = ABL1 (Homo sapiens, UniProt P00519); test: PamChip microarray peptide phosphorylation; conditions: peptide substrate phosphorylated by ABL1
SYK = SYK (Homo sapiens, UniProt P43405); test: PamChip microarray peptide phosphorylation; conditions: peptide substrate phosphorylated by SYK
FES^WT [2] = molecular target: T1, FES^WT; test: PamChip microarray peptide phosphorylation; type: biochemical; conditions: peptide substrate phosphorylated by FES - WT

Chain of ABL1 (P00519 whole entry): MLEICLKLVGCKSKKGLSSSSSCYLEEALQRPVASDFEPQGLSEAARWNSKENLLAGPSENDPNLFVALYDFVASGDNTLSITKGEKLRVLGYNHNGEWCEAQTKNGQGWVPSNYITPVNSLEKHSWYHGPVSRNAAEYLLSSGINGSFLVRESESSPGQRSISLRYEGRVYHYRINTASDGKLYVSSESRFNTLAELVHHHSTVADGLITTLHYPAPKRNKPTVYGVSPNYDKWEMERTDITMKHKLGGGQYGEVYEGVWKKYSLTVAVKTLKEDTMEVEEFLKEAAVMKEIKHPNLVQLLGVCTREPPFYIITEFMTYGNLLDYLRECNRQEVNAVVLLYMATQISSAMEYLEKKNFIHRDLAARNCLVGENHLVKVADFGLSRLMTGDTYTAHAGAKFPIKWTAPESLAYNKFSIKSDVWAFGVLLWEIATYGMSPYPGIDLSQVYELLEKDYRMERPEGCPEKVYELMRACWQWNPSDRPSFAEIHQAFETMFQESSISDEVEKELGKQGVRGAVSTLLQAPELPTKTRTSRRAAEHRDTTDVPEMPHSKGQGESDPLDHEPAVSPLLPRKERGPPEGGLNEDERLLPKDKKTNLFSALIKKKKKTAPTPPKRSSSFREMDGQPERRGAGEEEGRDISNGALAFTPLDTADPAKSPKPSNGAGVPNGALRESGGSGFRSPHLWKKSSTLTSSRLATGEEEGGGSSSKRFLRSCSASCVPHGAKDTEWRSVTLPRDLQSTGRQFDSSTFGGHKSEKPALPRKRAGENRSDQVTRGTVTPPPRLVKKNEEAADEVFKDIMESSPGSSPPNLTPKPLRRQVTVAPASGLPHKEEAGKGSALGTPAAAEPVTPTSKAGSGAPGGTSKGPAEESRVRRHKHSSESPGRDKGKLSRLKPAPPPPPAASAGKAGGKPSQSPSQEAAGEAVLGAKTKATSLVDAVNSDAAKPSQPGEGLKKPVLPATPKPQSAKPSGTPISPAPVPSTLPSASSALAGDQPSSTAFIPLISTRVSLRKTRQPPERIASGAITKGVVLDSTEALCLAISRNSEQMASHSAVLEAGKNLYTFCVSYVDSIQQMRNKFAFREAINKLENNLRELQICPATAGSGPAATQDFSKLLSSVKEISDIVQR
Chain of CSK (P41240 whole entry): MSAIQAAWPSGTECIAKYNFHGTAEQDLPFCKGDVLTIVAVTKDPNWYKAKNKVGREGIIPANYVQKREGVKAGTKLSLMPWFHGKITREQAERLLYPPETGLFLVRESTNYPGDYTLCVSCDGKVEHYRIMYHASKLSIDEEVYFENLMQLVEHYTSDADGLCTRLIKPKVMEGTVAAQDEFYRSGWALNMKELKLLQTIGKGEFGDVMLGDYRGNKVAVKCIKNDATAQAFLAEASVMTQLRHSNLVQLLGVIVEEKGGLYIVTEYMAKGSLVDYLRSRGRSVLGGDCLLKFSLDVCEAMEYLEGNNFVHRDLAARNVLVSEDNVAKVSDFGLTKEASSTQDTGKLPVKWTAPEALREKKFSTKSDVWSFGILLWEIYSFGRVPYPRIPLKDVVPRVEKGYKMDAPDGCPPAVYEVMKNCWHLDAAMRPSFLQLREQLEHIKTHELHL
Chain of LYN (P07948 whole entry): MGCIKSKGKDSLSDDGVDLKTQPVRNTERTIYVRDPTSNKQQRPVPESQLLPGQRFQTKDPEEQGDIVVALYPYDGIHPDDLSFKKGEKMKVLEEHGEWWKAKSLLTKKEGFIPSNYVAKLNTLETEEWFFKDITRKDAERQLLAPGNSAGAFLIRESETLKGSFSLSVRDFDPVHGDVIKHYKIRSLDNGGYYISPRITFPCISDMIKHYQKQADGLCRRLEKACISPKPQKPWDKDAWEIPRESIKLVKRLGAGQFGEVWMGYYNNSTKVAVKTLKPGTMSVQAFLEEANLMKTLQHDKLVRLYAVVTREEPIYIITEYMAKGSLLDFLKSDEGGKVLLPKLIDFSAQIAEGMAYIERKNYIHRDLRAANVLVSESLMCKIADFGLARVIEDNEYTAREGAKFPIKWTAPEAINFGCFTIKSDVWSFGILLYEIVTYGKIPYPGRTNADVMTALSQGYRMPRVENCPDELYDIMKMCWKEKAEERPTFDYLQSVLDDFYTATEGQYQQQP
T1 sequence (P07332 448-822): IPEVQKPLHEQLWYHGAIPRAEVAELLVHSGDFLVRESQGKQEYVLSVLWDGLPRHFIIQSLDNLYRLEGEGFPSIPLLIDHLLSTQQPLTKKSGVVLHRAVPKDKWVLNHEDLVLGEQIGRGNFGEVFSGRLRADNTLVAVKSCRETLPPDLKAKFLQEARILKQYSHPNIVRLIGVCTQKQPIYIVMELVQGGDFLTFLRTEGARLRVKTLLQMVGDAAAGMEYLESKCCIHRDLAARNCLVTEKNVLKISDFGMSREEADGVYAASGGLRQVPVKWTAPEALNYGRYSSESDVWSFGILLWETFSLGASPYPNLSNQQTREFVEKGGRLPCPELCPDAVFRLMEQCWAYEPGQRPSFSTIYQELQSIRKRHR
Chain of FES^S700C (P07332 448-822 S700C): as the sequence (P07332 448-822) above, with S253C counted along it

| Compound | pIC50 FES^WT (FES^WT [1]) | Apparent fold selectivity (FES^S700C; IC50 on FES^WT divided by IC50 on FES^S700C) | pIC50 FES^S700C (FES^S700C; TR-FRET assay, 5 µM ATP, n = 3) | Relative phosphorylation (% of highest signal) (LYN) | Relative phosphorylation (% of highest signal) (CSK) | Relative phosphorylation (% of highest signal) (FGR) | Relative phosphorylation (% of highest signal) (ABL1) | Relative phosphorylation (% of highest signal) (SYK) | Relative phosphorylation (% of highest signal) (FES^WT [2]) |
| --- | --- | --- | --- | --- | --- | --- | --- | --- | --- |
| C=CC(=O)Nc1cccc(Nc2nc(Nc3ccccc3OC)ncc2Cl)c1 [Compound 3] | 6.5 ± 0.06 | 0.65 fold | 6.3 ± 0.06 | – | – | – | – | – | – |
| VGFR3_1061_1073 (DIYKDPDYVRKGS; UniProt P35916 1061-1073, looked up, fragment) | – | – | – | 0.0483 % of highest signal | 0.341 % of highest signal | 0.468 % of highest signal | 2.9 % of highest signal | 2.4 % of highest signal | -0.0595 % of highest signal |
| VGFR1_1162_1174 (VQQDGKDYIPINA; UniProt P17948 1162-1174, looked up, fragment) | – | – | – | -0.153 % of highest signal | -0.737 % of highest signal | -3.4 % of highest signal | -0.426 % of highest signal | 1.8 % of highest signal | 2.3 % of highest signal |
| VGFR2_944_956 (RFRQGKDYVGAIP; UniProt P35968 944-956, looked up, fragment) | – | – | – | -0.364 % of highest signal | -0.8 % of highest signal | -1.0 % of highest signal | -0.378 % of highest signal | 0.9 % of highest signal | 0.741 % of highest signal |
| MK01_198_210 (IMLNSKGYTKSID; UniProt P28482 198-210, looked up, fragment) | – | – | – | -0.184 % of highest signal | -0.8 % of highest signal | -3.8 % of highest signal | -0.5 % of highest signal | -1.2 % of highest signal | -0.6 % of highest signal |
| STAT1_694_706 (DGPKGTGYIKTEL; UniProt P42224 694-706, looked up, fragment) | – | – | – | -0.0105 % of highest signal | -1.4 % of highest signal | -3.3 % of highest signal | -0.6 % of highest signal | -1.9 % of highest signal | -0.5 % of highest signal |
| VGFR1_1046_1058_Y1048F (DIFKNPDYVRKGD; UniProt P17948 1046-1058, looked up, variant Y1048F) | – | – | – | -0.0478 % of highest signal | -0.9 % of highest signal | -2.7 % of highest signal | -0.449 % of highest signal | 1.1 % of highest signal | -0.452 % of highest signal |
| EPOR_361_373 (SEHAQDTYLVLDK; UniProt P19235 361-373, looked up, fragment) | – | – | – | 1.2 % of highest signal | 2.0 % of highest signal | 2.0 % of highest signal | 0.0544 % of highest signal | 12.7 % of highest signal | 3.3 % of highest signal |
| VGFR1_1206_1218 (GSSDDVRYVNAFK; UniProt P17948 1206-1218, looked up, fragment) | – | – | – | -0.1 % of highest signal | -0.459 % of highest signal | -1.0 % of highest signal | 0.0233 % of highest signal | -0.354 % of highest signal | -0.0198 % of highest signal |
| EPHA4_921_933 (QAIKMDRYKDNFT; UniProt P54764 921-933, looked up, fragment) | – | – | – | -0.126 % of highest signal | -0.535 % of highest signal | -1.7 % of highest signal | -0.327 % of highest signal | -0.4 % of highest signal | -0.348 % of highest signal |
| VGFR1_1320_1332_C1320K/C1321K (KKSPPPDYNSVVL; UniProt P17948 1320-1332, looked up, variant C1320K C1321K) | – | – | – | -0.28 % of highest signal | -0.847 % of highest signal | -2.8 % of highest signal | -0.0535 % of highest signal | 4.3 % of highest signal | 2.0 % of highest signal |
| ODBA_340_352_D340K (KDSSAYRSVDEVN; UniProt P12694 340-352, looked up, variant D340K) | – | – | – | 0.112 % of highest signal | 10.4 % of highest signal | -0.358 % of highest signal | 5.2 % of highest signal | 1.5 % of highest signal | -0.457 % of highest signal |
| ZBT16_621_633 (LRTHNGASPYQCT; UniProt Q05516 621-633, looked up, fragment) | – | – | – | -0.2 % of highest signal | -0.468 % of highest signal | 3.8 % of highest signal | -0.119 % of highest signal | -1.0 % of highest signal | 0.657 % of highest signal |
| VINC_815_827 (KSFLDSGYRILGA; UniProt P18206 815-827, looked up, fragment) | – | – | – | -0.3 % of highest signal | -0.442 % of highest signal | -2.6 % of highest signal | 1.1 % of highest signal | -1.0 % of highest signal | 0.223 % of highest signal |
| ART_004_EAIYAAPFAKKKXC | – | – | – | 2.6 % of highest signal | 17.0 % of highest signal | 8.3 % of highest signal | 100.0 % of highest signal | 3.2 % of highest signal | 5.0 % of highest signal |
